Source: US20200325237A1 (AVIDITY BIOSCIENCES, published 2020)
“And” between values parts separate entries of the source, which are not always exact repeats. Equal values may be shown once.

Key:
[1] = molecular target: T1, recombinant human transferrin receptor protein (Sino Biological 11020-H07H) (human, UniProt P02786 89-760); assay: ELISA on plate-coated recombinant human TfR1 (CD71); fit: specific binding with Hill slope
T1 construct: Bought protein coated on ELISA plates; also called recombinant human TfR1; human TfR1
Protocol: Half-well high-binding 96-well plates (Costar #3690) were coated with recombinant human transferrin receptor protein (Sino Biological 11020-H07H) or recombinant cyno transferrin receptor protein (Sino Biological 90253-C07H) at 1 ng/μL in PBS (Gibco 14190) and incubated overnight at 4° C. Plates were washed four times with 100 μL of Tris buffered saline+Tween (20×TBST, Cell Signaling 9997S). 100 μL of Superblock (ThermoFisher PI-37535) was added to each well and incubated for 1 hour at room temperature. The wash step was repeated before the addition of the samples. Samples were added at concentrations up to 10 nM, 50 μL/well. Plates were incubated for another hour at room temp and wash step repeated. Secondary antibody (Peroxidase AffiniPure Goat Anti-Human IgG, Fcγ Fragment Specific, Jackson Immunoresearch, 109-035-098) was diluted 1:5000 in Superblock and 50 μL/well added. Plates were incubated for 1 hour at room temperature and washed one more time. Binding was measured by the addition of 50 μL of 1-Step™ Ultra TMB-ELISA (ThermoFisher, 34028), incubated for 5 minutes, and the reaction was stopped with the addition of 25 μL of Stop Solution 2N sulfuric Acid (R&D Systems DY994). Absorbance was measured at 450 nm, with reference wavelength 570 nm subtracted. Binding constants were determined using GraphPad Prism Specific Binding with Hill Slope.

[2] = molecular target: T2, hTfR (human transferrin receptor, source and construct not stated) (human, UniProt P02786 89-760, limits assumed); assay: ELISA, biotinylated antibody on hTfR captured by plate-coated human holo-transferrin (Tf+TfR); fit: specific binding with Hill slope
Procedure, shortened: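 Human holo-transferrin coated at 500 ng/mL (4 °C overnight) captured hTfR (200 ng/mL, 30 min); comparison plates carried directly coated hTfR. Biotinylated antibodies, 3-fold series from 20 nM (pre-addition), bound 1 h; streptavidin-HRP/TMB, A450 minus A570. Kd from specific binding with Hill slope; shift judged against reference antibody AF2474 with transferrin-overlapping epitope.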

[3] = molecular target: T3, recombinant cyno transferrin receptor protein (Sino Biological 90253-C07H) (cyno, UniProt H9EXL1 89-760 (rhesus entry)); assay: ELISA on plate-coated recombinant cyno TfR1 (CD71); fit: specific binding with Hill slope
T3 construct: Bought protein coated on ELISA plates; also called recombinant cyno TfR1; cynoTfR1
Procedure, shortened: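 Plates coated overnight at 4° C with recombinant human or cyno TfR1 (1 ng/μL), blocked, then incubated with samples up to 10 nM for 1 h at room temperature. Bound IgG detected with HRP anti-human Fcγ and TMB (A450 minus A570); Bmax, h and Kd from specific-binding-with-Hill-slope fit.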

[4] = molecular target: T2, hTfR (human transferrin receptor, …); assay: ELISA; ratio of the Kd on HFE-captured hTfR to the Kd on directly coated hTfR
[5] = molecular target: T2, hTfR (human transferrin receptor, …); assay: SPR (BioRad ProteOn XPR36), average of the three 13E4_WT runs, mAb captured on Protein A, hTfR as analyte, 25 C; Average (n = 3) of the three 13E4_WT runs
Protocol: (§1) The binding kinetics of nine exemplary humanized anti-TfR antibodies and the parent chimeric antibody were characterized. Studies were run on a BioRad ProteOn XPR36 optical biosensor using a GLM sensor chip coated with Protein A for mAb capture. Running buffer included 10 mM EPES, 150 mM NaCl, pH 7.4 with 0.05 tween-20 with 0.2 mg/ml BSA. Data were collected at 25 degrees C. All mAbs were diluted into running buffer to 2 ug/ml based on the stock concentration provided. Each was then captured for 40 seconds over a Protein A surface.
(§2) hTfR (100 ug) was dissolved into […] of water to yield a 4.3 uM stock concentration. hTfR was dilted to 43 nM as the highest concentration and tested in a 3 fold dilution series. hTfR was injected at 200 ul/min for 2 minutes followed by a one-hour dissociation phase.

[6] = molecular target: T2, hTfR (human transferrin receptor, …); assay: SPR (BioRad ProteOn XPR36), average of the three 13E4_WT runs, mAb captured on Protein A, hTfR as analyte, 25 C
Protocol: as §1, §2

[7] = molecular target: T2, hTfR (human transferrin receptor, …); assay: SPR (BioRad ProteOn XPR36), mAb captured on Protein A, hTfR as analyte, 25 C
Procedure, shortened: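 Antibodies at 2 ug/ml were captured on a Protein A GLM chip for 40 s. hTfR was injected as analyte from 43 nM in a 3-fold series, 2 min association and 1 h dissociation. Run at 25 degrees C in HEPES/150 mM NaCl pH 7.4 with tween-20 and 0.2 mg/ml BSA.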

[8] = molecular target: T2, hTfR (human transferrin receptor, …); assay: ELISA, biotinylated antibody on hTfR captured by plate-coated HFE (HFE+TfR); fit: specific binding with Hill slope
[9] = molecular target: T2, hTfR (human transferrin receptor, …); assay: SPR (BioRad ProteOn XPR36), mAb captured on Protein A, hTfR as analyte, 25 C; 13E4_WT 2nd run
Protocol: as §1, §2

T2 sequence (P02786 89-760 limits assumed): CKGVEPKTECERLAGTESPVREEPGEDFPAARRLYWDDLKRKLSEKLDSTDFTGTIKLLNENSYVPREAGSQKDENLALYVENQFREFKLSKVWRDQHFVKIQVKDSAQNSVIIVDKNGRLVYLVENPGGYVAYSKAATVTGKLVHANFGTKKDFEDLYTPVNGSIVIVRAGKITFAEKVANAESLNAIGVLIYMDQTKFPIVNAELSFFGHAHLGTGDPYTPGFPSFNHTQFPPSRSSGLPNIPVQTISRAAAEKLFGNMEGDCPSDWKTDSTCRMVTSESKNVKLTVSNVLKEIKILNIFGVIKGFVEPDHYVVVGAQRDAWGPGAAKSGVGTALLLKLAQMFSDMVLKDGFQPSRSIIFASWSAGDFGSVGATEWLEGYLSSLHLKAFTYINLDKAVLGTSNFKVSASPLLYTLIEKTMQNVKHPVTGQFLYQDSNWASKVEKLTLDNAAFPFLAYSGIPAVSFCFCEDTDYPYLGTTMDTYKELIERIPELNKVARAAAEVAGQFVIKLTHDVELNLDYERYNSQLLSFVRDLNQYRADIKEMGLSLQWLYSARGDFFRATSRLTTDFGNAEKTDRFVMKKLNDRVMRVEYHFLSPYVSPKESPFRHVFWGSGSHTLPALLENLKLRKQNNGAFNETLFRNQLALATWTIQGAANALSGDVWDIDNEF
T1 sequence (P02786 89-760 limits assumed): as above
T3 sequence (chain, as listed by the source C07H C07H): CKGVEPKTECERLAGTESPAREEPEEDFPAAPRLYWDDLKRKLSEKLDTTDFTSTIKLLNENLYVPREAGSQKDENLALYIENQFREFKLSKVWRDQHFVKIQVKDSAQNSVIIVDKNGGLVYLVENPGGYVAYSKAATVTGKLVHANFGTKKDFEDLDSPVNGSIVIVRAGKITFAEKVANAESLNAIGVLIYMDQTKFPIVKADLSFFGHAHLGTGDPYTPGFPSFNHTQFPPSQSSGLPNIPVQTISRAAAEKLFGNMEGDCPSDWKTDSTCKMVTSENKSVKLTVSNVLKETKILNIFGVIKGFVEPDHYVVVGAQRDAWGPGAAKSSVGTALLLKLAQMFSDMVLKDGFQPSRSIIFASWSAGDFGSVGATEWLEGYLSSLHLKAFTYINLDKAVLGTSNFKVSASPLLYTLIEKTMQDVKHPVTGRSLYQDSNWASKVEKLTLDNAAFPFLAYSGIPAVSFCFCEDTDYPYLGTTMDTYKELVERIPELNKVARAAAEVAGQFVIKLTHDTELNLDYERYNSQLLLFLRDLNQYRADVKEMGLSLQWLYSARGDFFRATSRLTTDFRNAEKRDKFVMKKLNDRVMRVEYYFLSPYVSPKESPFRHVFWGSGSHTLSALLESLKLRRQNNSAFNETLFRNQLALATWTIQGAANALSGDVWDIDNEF

- Bmax [1]: 98.3 % max binding
- Kd [1]: 6.2 pM
- h [1]: 1.18
- Bmax [2]: 3.45 A450
- Kd [2]: 51.8 pM
- h [2]: 1.57
- Bmax [3]: 99.1 % max binding
- Kd [3]: 5.82 pM
- h [3]: 1.34
- Kd(HFE+TfR)/Kd(TfR) [4]: 16.9
- kon [5]: 900000 M⁻¹ s⁻¹
- Kd [6]: 1.1 pM
- koff [6]: 1e-06 s⁻¹
- kon [7]: 1.06e+06 M⁻¹ s⁻¹ and 903000 M⁻¹ s⁻¹ and 840000 M⁻¹ s⁻¹
- Bmax [8]: 2.88 A450
- Kd [8]: 286 pM
- h [8]: 1.54
- koff [9]: 1.5e-06 s⁻¹
B1: 13E4_WT (parent chimeric anti-TfR antibody) (antibody, V domains shown)
VH: QVQLQQPGAELVKPGASVKLSCKASGYTFTNYWMHWVKQRPGQGLEWIGEINPINGRSNYGERFKTKATLTVDKSSSTAYMQLSSLTSEDSAVYYCARGTRAMHYWGQGTSVTVSS
VL: DIQMTQSPASLSVSVGETVTITCRTSENIYNNLAWYQQKQGKSPQLLVYAATNLADGVPSRFSGSGSGTQYSLKINSLQSEDFGNYYCQHFWGTPLTFGAGTKLELK
notes: also called 13E4_WT 1st; 13E4_WT 2nd
